As a reminder, the Ki is a dissociation constant, usually derived from enzyme kinetics or from competition with a known ligand. High values mean a looser hold on the target, low ones a stronger hold on the target.

Assay in all cases: enzyme inhibition assay (chromogenic substrate, fit to Morrison's tight binding equation); MMP-2ACT (0.6 nM), MMP-9CAT (3 nM) or MMP-14CAT (1 nM) incubated with 0-25 nM N-TIMP2 variant for 1 h at 37 C in 50 mM HEPES, 10 mM CaCl2, 0.05% Brij-35, 1 mM DTNB, pH 7.5; then 100 uM chromogenic substrate, absorbance at 412 nm; three independent experiments
For assay [1], the target named is human MMP-14 catalytic domain (MMP-14CAT) (human) (UniProt P50281).
The target in assay [2] is human MMP-9 catalytic domain (MMP-9CAT) (human) (UniProt P14780).
The target in assay [3] is activated MMP-2 (MMP-2ACT) (human) (UniProt P08253).

In the case of “N-TIMP2-S69HqAla (from UniProt P16035 27-153) (domain or fragment)”, the Ki in assay [1] worked out at 11.5 nM; in assay [2], 0.449 nM; in assay [3] it was 0.606 nM.
As for “N-TIMP2-S2DOPA (from UniProt P16035 27-153) (domain or fragment)”, the Ki in assay [1] was 14.6 nM; in assay [2], 0.623 nM; in assay [3], 3.14 nM.
In the case of “N-TIMP2-S69DOPA (from UniProt P16035 27-153) (domain or fragment)”, the Ki was 21.4 nM in assay [1], 0.468 nM in assay [2] and 0.46 nM in assay [3].
For the substance “N-TIMP2-Y36HqAla (from UniProt P16035 27-153) (domain or fragment)”, the figures for the Ki in assay [1], in assay [2] and in assay [3] were 4.72 nM, 0.543 nM and 0.413 nM, respectively.
Regarding “N-TIMP2-S2HqAla (from UniProt P16035 27-153) (domain or fragment)”, the values for the Ki in assay [1], in assay [2] and in assay [3] were 97.7 nM, 70.4 nM and 97.7 nM, respectively.
With “N-TIMP2-A70HqAla (from UniProt P16035 27-153) (domain or fragment)”, the results for the Ki in assay [1], in assay [2] and in assay [3] were 27.2 nM, 1.93 nM and 16.7 nM, respectively.
For the substance “N-TIMP2-A70DOPA (from UniProt P16035 27-153) (domain or fragment)”, the results for the Ki in assay [1], in assay [2] and in assay [3] were 10.6 nM, 0.452 nM and 0.785 nM, respectively.
In the case of “N-TIMP2-L100DOPA (from UniProt P16035 27-153) (domain or fragment)”, the Ki in assay [1] worked out at 14.2 nM; in assay [2], 0.849 nM; in assay [3], 1 nM.
